The target in experiment [1] is human placental alkaline phosphatase (PLAP, Sigma) (human) (UniProt P05187). The experiment in a line: ELISA on coated hPLAP; mAb 64 ng/ml in PBS, undiluted. On the technique in general: An ELISA detects its analyte on a solid surface through an enzyme-linked reagent.
For experiment [2] the target is unchanged. The experiment in a line: ELISA on coated hPLAP; mAb 64 ng/ml in PBS, diluted 1:2.
Experiment [3] has the same target. The experiment in a line: ELISA on coated hPLAP; mAb 64 ng/ml in PBS, diluted 1:4.
For experiment [4] the target is unchanged. The experiment is described as follows: ELISA on coated hPLAP; mAb 64 ng/ml in PBS, diluted 1:8.
The target is the same in experiment [5]. The experiment is described as follows: ELISA on coated hPLAP; mAb 64 ng/ml in PBS, diluted 1:16.
The target is the same in experiment [6]. The experiment is described as follows: ELISA on coated hPLAP; mAb 64 ng/ml in PBS, diluted 1:32.
Experiment [7] shares this target. The experiment is described as follows: ELISA on coated hPLAP; mAb 64 ng/ml in PBS, diluted 1:64.
Experiment [8] shares this target. The experiment in a line: ELISA on coated hPLAP; mAb 64 ng/ml spiked in negative serum, undiluted.
The target is the same in experiment [9]. The experiment in a line: ELISA on coated hPLAP; mAb 64 ng/ml spiked in negative serum, diluted 1:2.
For experiment [10] the target is unchanged. The experiment is described as follows: ELISA on coated hPLAP; mAb 64 ng/ml spiked in negative serum, diluted 1:4.
Experiment [11] shares this target. The experiment in a line: ELISA on coated hPLAP; mAb 64 ng/ml spiked in negative serum, diluted 1:8.
The target is the same in experiment [12]. The experiment is described as follows: ELISA on coated hPLAP; mAb 64 ng/ml spiked in negative serum, diluted 1:16.
Experiment [13] shares this target. The experiment in a line: ELISA on coated hPLAP; mAb 64 ng/ml spiked in negative serum, diluted 1:32.
For experiment [14] the target is unchanged. The experiment is described as follows: ELISA on coated hPLAP; mAb 64 ng/ml spiked in negative serum, diluted 1:64.
Experiment [15] shares this target. The experiment in a line: ELISA on coated hPLAP; row labelled '0' (apparently no sample, background).

Our source for the absorbance values is patent US20030104422A1.

“And” between values parts separate entries of the source, which are not always exact repeats. Equal values may be shown once.

UniProt P05187, sequence (P05187 23-506 limits assumed): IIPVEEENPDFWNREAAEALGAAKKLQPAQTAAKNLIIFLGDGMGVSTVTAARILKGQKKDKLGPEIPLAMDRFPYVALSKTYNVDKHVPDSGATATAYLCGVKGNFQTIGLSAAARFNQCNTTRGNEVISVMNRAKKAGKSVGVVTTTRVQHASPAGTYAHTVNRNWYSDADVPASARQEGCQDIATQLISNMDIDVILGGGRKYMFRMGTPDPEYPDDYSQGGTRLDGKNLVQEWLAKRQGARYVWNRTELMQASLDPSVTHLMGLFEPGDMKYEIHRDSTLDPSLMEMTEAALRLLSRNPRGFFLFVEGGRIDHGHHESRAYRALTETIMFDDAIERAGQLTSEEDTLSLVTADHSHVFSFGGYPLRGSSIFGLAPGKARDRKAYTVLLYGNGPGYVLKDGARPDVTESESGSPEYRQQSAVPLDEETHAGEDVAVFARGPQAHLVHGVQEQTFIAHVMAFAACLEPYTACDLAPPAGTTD

For the substance “mouse monoclonal antibody to PLAP (clone 8B6, Sigma Immunochemicals)”, the absorbance at 450 nm (absorbance at 450 nm) came out at 0.486 in [1]; 0.487 in [2]; 0.424 in experiment [3]; 0.282 in experiment [4]; 0.169 in experiment [5]; 0.091 in experiment [6]. Besides, the absorbance at 450 nm (absorbance at 450 nm) in experiment [7] amounted to 0.047; in experiment [8] it was 0.546; in experiment [9] it was 0.439; in [10] it was 0.341; in experiment [11], 0.209; in experiment [12], 0.123. For the same substance, the absorbance at 450 nm (absorbance at 450 nm) was 0.071 in experiment [13]; 0.042 in experiment [14]; 0.007 and 0.009 in experiment [15].

For the substance “negative control serum (serum of mice injected with saline)”, the absorbance at 450 nm (absorbance at 450 nm) in [15] is 0.005.
